Measured values from patent publication US20170166895.

Key:
[1] = target: T1, Complement component 3 (C3) (Homo sapiens) (UniProt P01024+P01024); assay: filter; conditions: 3'-3' idT
[2] = target: T1, Complement component 3 (C3) (Homo sapiens); assay: inhibition; conditions: P = NapdU (all U); 3'-3' idT; hemolysis, 20 nM C3, GVB++, 37 C
[3] = all U in listing = NapdU, SB18T0.01, 37C
[4] = all U in listing = NapdU, SB18T0.01 (5 mM MgCl2), 37C
[5] = all U = NapdU, C3-spacer replaces C17, SB18T0.01, 37C
[6] = all U = NapdU, T = dT, SB18T0.01, 37C

T1 sequence (P01024 23-667, chain 1 of 2): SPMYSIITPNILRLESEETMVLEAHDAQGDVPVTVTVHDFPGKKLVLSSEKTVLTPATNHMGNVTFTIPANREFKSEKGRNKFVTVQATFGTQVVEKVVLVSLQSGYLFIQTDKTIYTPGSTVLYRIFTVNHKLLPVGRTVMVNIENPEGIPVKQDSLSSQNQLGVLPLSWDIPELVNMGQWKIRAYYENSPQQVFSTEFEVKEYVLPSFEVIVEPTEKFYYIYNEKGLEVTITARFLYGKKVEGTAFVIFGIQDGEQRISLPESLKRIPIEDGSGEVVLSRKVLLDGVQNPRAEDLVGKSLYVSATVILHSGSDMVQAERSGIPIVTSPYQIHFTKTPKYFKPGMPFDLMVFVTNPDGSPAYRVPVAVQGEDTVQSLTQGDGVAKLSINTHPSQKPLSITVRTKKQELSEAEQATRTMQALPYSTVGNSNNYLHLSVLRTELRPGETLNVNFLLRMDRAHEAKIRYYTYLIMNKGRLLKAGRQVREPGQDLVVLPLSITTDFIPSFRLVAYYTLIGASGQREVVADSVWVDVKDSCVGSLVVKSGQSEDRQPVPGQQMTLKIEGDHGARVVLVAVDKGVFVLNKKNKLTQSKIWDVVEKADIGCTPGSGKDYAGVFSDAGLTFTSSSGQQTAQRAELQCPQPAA
T1 sequence (P01024 672-1663, chain 2 of 2): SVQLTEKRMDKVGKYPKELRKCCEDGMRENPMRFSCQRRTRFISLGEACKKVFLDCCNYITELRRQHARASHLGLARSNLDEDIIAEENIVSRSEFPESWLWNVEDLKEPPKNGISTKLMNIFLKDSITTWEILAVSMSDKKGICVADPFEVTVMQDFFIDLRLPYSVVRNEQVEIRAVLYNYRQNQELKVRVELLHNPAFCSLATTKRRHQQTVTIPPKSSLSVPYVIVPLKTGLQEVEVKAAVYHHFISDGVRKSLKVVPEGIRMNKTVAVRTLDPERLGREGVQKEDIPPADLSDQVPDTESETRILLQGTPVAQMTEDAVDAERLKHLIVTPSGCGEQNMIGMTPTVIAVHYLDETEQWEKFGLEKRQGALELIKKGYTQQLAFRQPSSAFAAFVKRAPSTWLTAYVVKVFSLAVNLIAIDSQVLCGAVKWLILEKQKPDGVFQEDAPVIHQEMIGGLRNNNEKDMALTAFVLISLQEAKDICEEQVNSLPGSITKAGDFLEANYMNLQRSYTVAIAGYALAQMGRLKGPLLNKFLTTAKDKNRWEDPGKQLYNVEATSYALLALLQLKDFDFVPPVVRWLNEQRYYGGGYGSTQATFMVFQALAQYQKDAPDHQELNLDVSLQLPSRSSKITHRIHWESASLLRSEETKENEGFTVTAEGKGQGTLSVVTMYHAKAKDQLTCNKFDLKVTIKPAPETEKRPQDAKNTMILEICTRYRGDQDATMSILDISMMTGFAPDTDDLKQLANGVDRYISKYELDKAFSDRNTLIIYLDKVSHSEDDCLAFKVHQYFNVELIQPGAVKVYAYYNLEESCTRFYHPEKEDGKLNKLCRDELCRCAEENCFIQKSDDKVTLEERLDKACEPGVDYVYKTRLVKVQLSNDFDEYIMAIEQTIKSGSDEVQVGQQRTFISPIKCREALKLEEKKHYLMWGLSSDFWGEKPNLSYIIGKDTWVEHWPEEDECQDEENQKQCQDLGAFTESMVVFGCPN

CGGUGACUCAAUAGUCCGUACGUUCCCG [8491-94_53]
Kd ([1]; all U = NapdU, SB18T0.01, 37C): 0.0334 nM
IC50 [2]: 17.1 nM

CGGUGACUCAAUAGUCCGUACGUUCCCG [8491-94_63]
Kd ([1]; P = NapdU (all U), 2'-OMe G5, SB18T0.01, 5 mM MgCl2, 37 C): 0.0268 nM

CGGUGACUCAAUAGUCCGUACGUUCCCG [8491-94_86]
Kd ([1]; P = NapdU (all U), 2'-OMe G28, SB18T0.01, 5 mM MgCl2, 37 C): 0.0344 nM

TGGUGACUCAAUAGUCCGUATGUUCCCA [8491-94_130]
Kd ([1]; all P = NapdU, T = dT, 2'-OMe at 2,3,5,7,9,10,13,19,20,22-28, SB18T0.01, 37C): 17.9 nM

CGGUGACUCAAUAGUCCGUACGUUCCCG [8491-94_79]
Kd ([1]; P = NapdU (all U), 2'-OMe C21, SB18T0.01, 5 mM MgCl2, 37 C): 0.273 nM

ACTCCUGUUGACUCACAUAGUCCGUACGUUUACGGCAAUAGCACAGAGGA [8491-396_3]
Kd [1, 3]: 0.311 nM

CGGUGACUCAAUAGUCCGUACGUUCCCG [8491-94_85]
Kd ([1]; P = NapdU (all U), 2'-OMe C27, SB18T0.01, 5 mM MgCl2, 37 C): 0.0524 nM

GGGUGACUCAAUAGUCGUACAUUCCCC [8491-94_136]
Kd ([1]; all P = NapdU, 2'-OMe at 1,2,3,5,7,9,10,13,19,20,22-28, C3-spacer replaces C17, SB18T0.01, 37C): 9.1 nM

ACTCCCCGGUGACUCAAUAGUCCGUACGUUCCCGGUCC [8491-94_7]
Kd ([1]; all U = NapdU, SB18T0.01, 37C): 0.0194 nM

ACTCCCCGGUGACUCAAUAGUCCGUACGUUCCCGGUCCGAACGCGGA [8491-94_4]
Kd ([1]; all U = NapdU, SB18T0.01, 37C): 0.0291 nM

CGGUGACUCAAUAGUCCGUACGUUCCCG [8491-94_62]
Kd ([1]; P = NapdU (all U), 2'-OMe P4, SB18T0.01, 5 mM MgCl2, 37 C): 0.0918 nM

ACTCCGAGCAUUGACUCAAUAGUCCGUACGUUCCCGGUCUGAACGUGGAGGA [8491-406_3]
Kd [1, 3]: 2.47 nM

CCGGUGACUCAAUAGUCCGUCGUUCCCGG [8491-94_45]
Kd ([1]; all U = NapdU, C3-spacer replaces A21, SB18T0.01, 37C): 228 nM

ACTCCCCGGUGACUCAAUAGUCCGUACGUUCCCGG [8491-94_19]
Kd ([1]; all U = NapdU, SB18T0.01, 37C): 0.0559 nM

ACTCCUCCCACACGACGAAUUUGACUCAAUAGUCCGUACGUUUUAGAGGA [8491-402_3]
Kd [1, 3]: 0.0739 nM

CGGUGACUCAAUAGUCCGUACGUUCCCG [8491-94_66]
Kd ([1]; all U = NapdU, 2'-OMe at NapdU8, SB18T0.01, 37C): 0.149 nM

CCCCGGUGACUCAAUAGUCCGUACGUUCCCGG [8491-94_25]
Kd ([1]; all U = NapdU, SB18T0.01, 37C): 0.0928 nM

CGGUGAUCAAUAGUCGUACGUUCCG [8491-94_54]
Kd ([1]; all U = NapdU, C3-spacer replaces C7, C17, C25, SB18T0.01, 37C): 0.0221 nM

CGGUGACUUAGUCCGUACGUUCCCG [8491-94_57]
Kd ([1]; all U = NapdU, hexaethylene glycol (Heg) replaces C9-A10-A11, SB18T0.01, 37C): 0.245 nM

CCGGUGACUCAAUAGUCGUACGUUCCCGG [8491-94_43]
Kd ([1]; all U = NapdU, C3-spacer replaces C18, SB18T0.01, 37C): 0.0142 nM

CCGGUACUCAAUAGUCCGUACGUUCCCGG [8491-94_34]
Kd ([1]; all U = NapdU, C3-spacer replaces G6, SB18T0.01, 37C): 14.1 nM

CGGUGAUCAAUAGUCGUACGUUCCG [8491-94_100]
Kd ([1]; all U = NapdU, 2'-OMe at 1,2,3,5,9,10,13,19,20,22,23,24,26,27,28, C3-spacer replaces C7, C17, C25, SB18T0.01, 37C): 0.0794 nM

CGGUGACUCAAUAGUCCGUACGUUCCCG [8491-94_84]
Kd ([1]; P = NapdU (all U), 2'-OMe C26, SB18T0.01, 5 mM MgCl2, 37 C): 0.0738 nM

ACTCCCCGGUGACUCAAUAGUCCGUACGUUCCCGGUCCGAACGCGGAGGA [8491-94_3]
Kd [1, 4]: 0.0313 nM

CGGUGACUCAAUAGUCGUACGUUCCCG [8491-94_58]
Kd [1, 5]: 0.787 nM

CCGUGACUCAAUAGUCCGUACGUUCCCGG [8491-94_32]
Kd ([1]; all U = NapdU, C3-spacer replaces G3, SB18T0.01, 37C): 0.78 nM

ACTCCCCGGUGACUCAAUAGUCCGUACGUUCCCGGTCCGAACGCGGAGGA [8491-94_18]
Kd [1, 6]: 0.0421 nM

CGGUGACUCAAUAGUCCGUACGUUCCCG [8491-94_93]
Kd ([1]; all U = NapdU, 2'-OMe at 1,2,3,5,7,10,13,19,23,24,26,27,28, SB18T0.01, 37C): 0.0152 nM

CGGUGACUCAAUAGUCGUACGUUCCG [8491-94_99]
Kd ([1]; all U = NapdU, 2'-OMe at 1,2,3,5,7,9,10,13,19,20,22,23,24,26,27,28, C3-spacer replaces C17, C25, SB18T0.01, 37C): 0.167 nM

CGGUGACUCAAUAGUCCGUATGUUCCCG [8491-94_132]
Kd ([1]; all P = NapdU, T = dT, 2'-OMe at 1,2,3,5,7,9,10,13,19,20,22-28, SB18T0.01, 37C): 12.7 nM

ACTCCAGACUGUAGUUGACUCCAUAGUCCGUACGUUUACACAUUGGAGGA [8491-189_3]
Kd [1, 3]: 0.0335 nM

ACTCCCCGGUGACUCAAUAGUCCGUACGUUUGGCCGGGCAGGGGAGGA [8491-395_3]
Kd [1, 3]: 3.52 nM

GGGUGACUCAAUAGUCCGUACAUUCCCC [8491-94_135]
Kd ([1]; all P = NapdU, 2'-OMe at 1,2,3,5,7,9,10,13,19,20,22-28, SB18T0.01, 37C): 15.3 nM

CGGUGACUCAAUAGUCCGUACGUUCCCG [8491-94_95]
Kd ([1]; all U = NapdU, 2'-OMe at 1,2,3,5,7,10,13,19,20,23-28, SB18T0.01, 37C): 0.0357 nM

CGGUGACUCAAUAGUCCGUACGUUCCCG [8491-94_94]
Kd ([1]; all U = NapdU, 2'-OMe at 1,2,3,5,7,10,13,19,23-28, SB18T0.01, 37C): 0.0557 nM

ACTCCUCCCUUUGGCUCGAUAGUCGGUACGUUUUGGGGAGGCGUGGAGGA [8491-409_3]
Kd [1, 3]: 0.316 nM

ACTCCCCGGUGACUCAATAGUCCGUACGUUCCCGGUCCGAACGCGGAGGA [8491-94_13]
Kd [1, 6]: 41.7 nM

CCGGUGACUCAAUAGUCGUACGUUCCCGG [8491-94_42]
Kd [1, 5]: 0.86 nM

CGGUGACUCAAUAGUCGUACGUUCCG [8491-94_56]
Kd ([1]; all U = NapdU, C3-spacer replaces C17, C25, SB18T0.01, 37C): 0.0464 nM

CCGGUGACUCAAUAGUCCGUACGUUCCCGGUCCGAACGCGGAGGA [8491-94_23]
Kd ([1]; all U = NapdU, SB18T0.01, 37C): 0.0621 nM

CCGGUGACUCAAUAGUCCGUACGUUCCC [8491-94_28]
Kd ([1]; all U = NapdU, printed as 2.65-10, SB18T0.01, 37C): 0.265 nM

ACTCCUACAAAGCGAUUGGCUCGAUAGUCAGUACGUUUCUCGCUCGAGGA [8491-390_3]
Kd [1, 3]: 0.412 nM

ACTCCGAGCAUUGACUCAAUAGUCCGUACGUUUGGCCGGGCAGGGGAGGA [8491-3_3]
Kd [1, 4]: 0.119 nM

CGGUGACUCAAUAGUCCGUACGUUCCCGG [8491-94_30]
Kd ([1]; all U = NapdU, C3-spacer replaces C1, SB18T0.01, 37C): 0.0622 nM

CGGUGACUCAAUAGUCCGUACGUUCCCG [8491-94_89]
Kd ([1]; all U = NapdU, 2'-OMe at 1,3,5,7,10,13,28, SB18T0.01, 37C): 0.0173 nM

CCGGUGACUCAUAGUCCGUACGUUCCCGG [8491-94_38]
Kd ([1]; all U = NapdU, C3-spacer replaces A11, SB18T0.01, 37C): 0.148 nM

CGGUGACUCAAUAGUCCGUACGUUCCCG [8491-94_77]
Kd ([1]; P = NapdU (all U), 2'-OMe P19, SB18T0.01, 5 mM MgCl2, 37 C): 0.0262 nM

ACTCCCCGGUGACUCAAUAGUCCGUACGUUCCCGGUCCGAA [8491-94_6]
Kd ([1]; all U = NapdU, SB18T0.01, 37C): 0.019 nM

CCGGUGACUCAAUAGUCCUACGUUCCCGG [8491-94_44]
Kd ([1]; all U = NapdU, C3-spacer replaces G19, SB18T0.01, 37C): 1.28 nM

ACTCCCCGGUGACUCAAUAGUCCGUACGTUCCCGGUCCGAACGCGGAGGA [8491-94_16]
Kd [1, 6]: 69.4 nM

ACTCCGAGCAUUGACUCAAUAGUCCGUACGUUUGGCCCGUUCACAAGGAGGA [8491-393_3]
Kd [1, 3]: 0.25 nM

CCGGUGACUAAUAGUCCGUACGUUCCCGG [8491-94_37]
Kd ([1]; all U = NapdU, C3-spacer replaces C10, SB18T0.01, 37C): 0.0922 nM

ACTCCGAGCAUUGACUCAAUAGUCCGUACGUUUUUGACCGGGGCAGGGGGAGGA [8491-385_3]
Kd ([1]; all U in listing = NapdU, printed as 1.46-10, SB18T0.01, 37C): 0.146 nM

CGGUGACUCAAUAGUCCGUACGUUCCCG [8491-94_59]
Kd ([1]; P = NapdU (all U), 2'-OMe C1, SB18T0.01, 5 mM MgCl2, 37 C): 0.0342 nM

UGACUCAAUAGUCCGUACGUUCCCGGUCCGAACGCGGAGGA [8491-94_10]
Kd ([1]; all U = NapdU, SB18T0.01, 37C): 7.6 nM

CGGUGACUCAAUAGUCCGUACGUUCCCG [8491-94_68]
Kd ([1]; P = NapdU (all U), 2'-OMe A10, SB18T0.01, 5 mM MgCl2, 37 C): 0.0424 nM

ACTCCUACGGUUGGCUCCAUAGUCAGUACGUUUACGAUACCCCGAGGA [8491-282_3]
Kd [1, 3]: 0.27 nM

CGGUGACUCAAUAGUCCGUACGUUCCCG [8491-94_69]
Kd ([1]; P = NapdU (all U), 2'-OMe A11, SB18T0.01, 5 mM MgCl2, 37 C): 0.272 nM

CCGGUGACUCAAUAGUCCGUACGUUCCCG [8491-94_52]
Kd ([1]; all U = NapdU, C3-spacer replaces G30, SB18T0.01, 37C): 0.0504 nM

UGGUGACUCAAUAGUCGUACGUUCCCA [8491-94_137]
Kd ([1]; all P = NapdU, U1 = 2'-OMe-U, 2'-OMe at 1,2,3,5,7,9,10,13,19,20,22-28, C3-spacer replaces C17, SB18T0.01, 37C): 0.119 nM

ACTCCGAGCUUUUUUGACUCAAUUAGUCCGUACGUUUUUUGGCCGGGCAGGGGAGGA [8491-404_3]
Kd [1, 3]: 0.185 nM

CCGGUGACUCAUAGUCCGUACGUUCCCGG [8491-94_39]
Kd ([1]; all U = NapdU, C3-spacer replaces A12, SB18T0.01, 37C): 0.31 nM

CGGUGACUCAAUAGUCCGUACGUUCCG [8491-94_87]
Kd ([1]; all U = NapdU, SB18T0.01, 37C): 0.154 nM
